In patent US20250114450A1, “PHARMACEUTICAL COMBINATION CONTAINING ANTI-PD-1-ANTI-VEGFA BISPECIFIC ANTIBODY, AND USE THEREOF” (Akeso Biopharma, Inc., priority 2021, published 2025):

Target: FcγRI (UniProt P12314)
Test: BLI (Fortebio Octet), FcγRI immobilized on HIS1K sensor, antibody 3.12-50 nM, 1:1 fit

Chain of FcγRI (P12314 16-288 limits assumed): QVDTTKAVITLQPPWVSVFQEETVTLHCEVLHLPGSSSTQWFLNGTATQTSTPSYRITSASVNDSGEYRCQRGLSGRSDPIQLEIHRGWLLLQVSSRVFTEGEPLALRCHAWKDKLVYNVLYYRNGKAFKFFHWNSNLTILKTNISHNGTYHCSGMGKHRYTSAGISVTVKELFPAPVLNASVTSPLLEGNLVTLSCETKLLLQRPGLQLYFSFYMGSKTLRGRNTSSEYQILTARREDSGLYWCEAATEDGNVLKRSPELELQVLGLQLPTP

Work on Nivolumab (antibody) yielded a Kd of 6.2 nM.
